Here are results for 5 molecules from patent US20130018176A1, “METHODS OF PRODUCING HYBRIDOMAS AND MONOCLONAL ANTIBODIES AND ANTIBODIES PRODUCED THEREBY” (AMGEN INC., priority 2007, published 2013).

For test [1], the target named is T1, Ferroportin expressed inducibly in 293 cells (Homo sapiens, UniProt Q9NP59).
T1 construct: expressed in transfected cells; host or cells: 293 cells, tetracycline/doxycycline-inducible
T1 sequence (Q9NP59 1-571): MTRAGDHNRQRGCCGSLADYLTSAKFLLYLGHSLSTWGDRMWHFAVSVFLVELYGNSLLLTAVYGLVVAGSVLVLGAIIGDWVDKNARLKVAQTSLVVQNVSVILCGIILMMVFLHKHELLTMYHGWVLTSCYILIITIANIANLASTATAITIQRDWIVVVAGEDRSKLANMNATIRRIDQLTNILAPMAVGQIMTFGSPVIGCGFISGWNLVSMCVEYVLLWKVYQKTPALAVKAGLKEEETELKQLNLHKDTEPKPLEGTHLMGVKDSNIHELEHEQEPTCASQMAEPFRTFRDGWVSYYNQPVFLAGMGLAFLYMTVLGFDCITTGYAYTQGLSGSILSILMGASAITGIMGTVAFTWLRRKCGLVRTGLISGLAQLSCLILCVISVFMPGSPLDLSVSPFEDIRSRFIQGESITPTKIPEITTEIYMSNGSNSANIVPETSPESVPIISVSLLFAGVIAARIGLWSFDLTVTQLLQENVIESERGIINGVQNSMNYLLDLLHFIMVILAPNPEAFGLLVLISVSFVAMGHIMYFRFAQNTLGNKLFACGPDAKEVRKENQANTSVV
The experiment in a line: In vitro hepcidin activity ferritin assay. The note with it: 293 cells with tetracycline-inducible ferroportin; 1 μg/ml hepcidin; 17-20 hours. It is filed as cell-based. The procedure: Human hepcidin purified or produced according to Examples 1, 2, 3 and 4 was assayed for iron-regulating bioactivity in an in vitro cellular assay. […] The action of ferroportin can be reduced in a dose-dependent manner by hepcidin treatment.
293 cells expressing a tetracycline-inducible ferroportin gene were plated at 50,000 cells per well (70-80% density) in a 96 well BioCoat poly-D Lysine-coated plate in DMEM supplemented with 5% fetal bovine serum and a penicillin/streptomycin/glutamine supplement (Gibco BRL). After an overnight incubation at 37° C. with 5% CO2, the medium was replaced with assay medium (as above, but supplemented with 2.5 μg/ml doxycycline for […], 2.5 μg/ml iron citrate for iron supplemented wells and 1 μg/ml hepcidin for hepcidin treatment wells). The plate was further incubated for 17-20 hours as above before washing the wells in cold PBS and lysing in 120 ul of 1% Triton lysis buffer on ice for 15 minutes. 100 μl of lysates were used for ferritin analysis (Olympus AU400 clinical chemistry analyzer) and 10 μl for BCA protein assay (Pierce). Ferritin results were normalized for protein content.

Test [2] deals with T2, human hepcidin (Homo sapiens, UniProt P81172).
T2 construct: The pro-region of the protein was enzymatically cleaved by incubation with Kex protease; made in house; host or cells: E. coli
T2 sequence (P81172 60-84 limits assumed): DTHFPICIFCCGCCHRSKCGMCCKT
The experiment in a line: Neutralization of injected human hepcidin in mice (hypoferremic response). Type of test: in vivo. The note with it: 25 μg i.p. with isotype control antibody; female C57BL/6 mice; two hours. Here is the method: Activity of anti-human hepcidin antibodies was evaluated in vivo in mice that were administered human hepcidin in an amount sufficient to generate a hypoferremic response. On day 0, female C57BL/6 mice were injected subcutaneously with a murine monoclonal antibody (Ab2.7) directed against human hepcidin. Control mice received murine IgG1 as an isotypic control. At day 3, the mice received a single intraperitoneal injection of 25 μg E. coli-derived recombinant human Hepcidin (rhHepc). Serum iron levels were analyzed two hours later. […] Statistics represent ANOVA with a Dunnett's post-hoc test comparing all groups against the saline control.

For test [3], the target named is T3, E. coli-derived human hepcidin (Homo sapiens, UniProt P81172).
T3 construct: The pro-region of the protein was enzymatically cleaved by incubation with Kex protease; made in house; host or cells: E. coli
T3 sequence (P81172 60-84 limits assumed): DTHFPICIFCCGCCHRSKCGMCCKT
The experiment in a line: Biacore concurrent binding to hepcidin captured on antibody 1S1 surface (sandwich pairing). The note with it: 20 nM hepcidin on 1S1 surface, then 50 nM antibody. Here is the method:
Using Biacore analysis, a surface coated with antibody 1S1 was tested for the concurrent binding of hepcidin and another antibody (FIG. 28). Immobilization of anti-Hepc antibody 1S1 to the sensor chip surface was performed according to manufacturer's instructions using a continuous flow of 0.005% P-20/PBS buffer. Briefly, carboxyl groups on the sensor chip surfaces were activated by injecting 60 μL of a mixture containing 0.2 M N-ethyl-N′-(dimethylaminopropyl)carbodiimide (EDC) and 0.05 M N-hydroxysuccinimide (NHS). This was followed by injecting 1S1 diluted in 10 mM acetate, pH 4.0 at concentrations between 20 μg/mL. Excess reactive groups on the surfaces were deactivated by injecting 60 μL of 1 M ethanolamine. Final immobilized levels were 5,000-6,000 resonance units (RU) for the Ab 1S1 surface. A blank, mock-coupled reference surface was also prepared on the sensor chip. 20 nM E. coli-derived human hepcidin was injected over and bound to the 1S1 antibody surface. Then 50 nM antibody 2.7, 23F11, 26F11, and 1S1 were injected over the hepcidin/1S1 surface. After the antibody injection, the surfaces were regenerated by injecting 30 μL 10 mM HCl pH 2.0.
In general terms: SPR reads the build-up and loss of mass on a sensor chip optically.

On to “hydrogen-DTHFPICIFCCGCCHRSKCGMCCKT-free acid [synthetic hepcidin]”, for which the “iron retention (ferritin)” value in test [1] is reported as “increase in iron retention”.
As to “rhHepc: E. coli-derived recombinant human Hepcidin”, the “serum iron levels after hepcidin injection” value in test [2] is listed as “hypoferremia”.
As for “recombinant hepcidin: human hepcidin produced recombinantly according to Examples 2 and 3 (CHO- or E. coli-derived)”, the “iron retention (ferritin)” value in test [1] is “increase in iron retention”.
As to “urinary hepcidin: Human hepcidin isolated from urine of sepsis patients”, in test [1], the “iron retention (ferritin)” value is given as “increase in iron retention”.

B1: Antibody 26F11: human antibody from Xenomouse, SEQ ID NOs: 187-196 (antibody)
heavy: QVQLVESGGGVVQPGRSLRLSCAASGFTFSNYGMHWVRQAPGKGLEWVAVIWYVGSNKYYADSVKGRFTISRDNSKNTLYLQMNSLRAEDTAVYYCARAQEGMAPDAFDIWGQGTMVTVSSASTKGPSVFPLAPCSRSTSESTAALGCLVKDYFPEPVTVSWNSGALTSGVHTFPAVLQSSGLYSLSSVVTVPSSNFGTQTYTCNVDHKPSNTKVDKTVERKCCVECPPCPAPPVAGPSVFLFPPKPKDTLMISRTPEVTCVVVDVSHEDPEVQFNWYVDGVEVHNAKTKPREEQFNSTFRVVSVLTVVHQDWLNGKEYKCKVSNKGLPAPIEKTISKTKGQPREPQVYTLPPSREEMTKNQVSLTCLVKGFYPSDIAVEWESNGQPENNYKTTPPMLDSDGSFFLYSKLTVDKSRWQQGNVFSCSVMHEALHNHYTQKSLSLSPGK
light: SYELTQPPSVSVSPGQTASITCSGDKMGERYACWYQQKPGQSPILVIYQDTKRPSGIPERFSGSNSGNTATLTISGTQAMDEADYYCQAWYSSTNVVFGGGTKLTVLGQPKAAPSVTLFPPSSEELQANKATLVCLISDFYPGAVTVAWKADSSPVKAGVETTTPSKQSNNKYAASSYLSLTPEQWKSHRSYSCQVTHEGSTVEKTVAPTECS
As to B1, in test [3], the “ability to bind hepcidin concurrently with 1S1 (sandwich pair)” value is on record as “markedly lower ability to bind to hepcidin concurrently with 1S1”.
